Results on 17 sequences are retold here after a protein production outcome set (Wang et al. 2014).

The data set can be described thus: label from the status in PepcDB records.
With “MPYINELRNHKFLIILVDLLCILAAYIAAFYIRYQGFPAKNWESFVSLLPWILLIGLFFISVYELYALDRKNTLWDILVKIFVAVTFMAFLTMAASYFFREFALPRSILFIASVFTIVLLATWKYVFLKLTRRNVVGKVLFIGDDDNTERMISKIKHPMLKGTSIKQVHPNIPMDKINHYMRHADYIILCTSIQKEKKSMIIYHAMECNKLVYVVPTLYELLLQRSSVTPLDDTMLMSVKPFGLTWDQAFIKRAFDVVTSAFTLICTSPLLPISCNFN”, the protein production result is reported as “failed”.
For “MLKLGVIGTGAISHHFIEAAHTSGEYQLVAIYSRKLETAATFASRYQNIQLFDQLEVFFKSSFDLVYIASPNSLHFAQAKAALSAGKHVILEKPAVSQPQEWFDLIQTAEKNNCFIFEAARNYHEKAFTTIKNFLADKQVLGADFNYAKYSSKMPDLLAGQTPNVFSDRFAGGALMDLGIYPLYAAVRLFGKANDATYHAQQLDNSIDLNGDGILFYPDYQVHIKAGKNITSNLPCEIYTTDGTLTLNTIEHIRSAIFTDHQGNQVQLPIQQAPHTMTEEVAAFAHMIQQPDLNLYQTWLYDAGSVHELLYTMRQTAGIRFEAEK”, the protein production result is “not failed”.
To “MLKSCPMNPRLDALHPYPFEKLRALLADAGKPTHDLPPINLSIGEPKHAAPACVGQAIAANLAGLSVYPSTKGEPALRQAISQWLSRRYSIPAPDPESEVLPVLGSREALFAFAQTVIDPSAGALVVCPNPFYQIYEGAALLAGATPYYVNADPARDFGCDWARVPDEVWRRTQLVFVCSPGNPAGNVMSLEEWRTLFELSDRHGFVIAADECYSEIYLDEDNPPLGSLQAARRLGRDRYTNLVAFSSLSKRSNVPGMRSGFVAGDAALLARFLLYRTYHGSAMSPVVSAASIAAWSDETHVQENRRQYRAKFEAVLPILQNVLDVRAPQASFYLWAGTPGSDTAFARELYGRTGVTVLPGSLLAREAHNANPGQGRIRIALVAPLDQCVQAAERIAHFARTSI” belongs “failed”.
To “MLTAPPKEAARPTLMPRAQSYKDLTHLPAPTGKIFVSVYNIQDETGQFKPYPASNFSTAVPQSATAMLVTALKDSRWFIPLERQGLQNLLNERKIIRAAQENGTVAINNRIPLQSLTAANIMVEGSIIGYESNVKSGGVGARYFGIGADTQYQLDQIAVNLRVVNVSTGEILSSVNTSKTILSYEVQAGVFRFIDYQRLLEGEVGYTSNEPVMLCLMSAIETGVIFLINDGIDRGLWDLQNKAERQNDILVKYRHMSVPPESLEHHHHHH” belongs “failed”; to “LGTVIQENSRSGGEQSANFFVNGPLAENLLLQVYGQYTAREEDDIDYGYEDKDMQSISSKLIYQINDRHSVQLEGGTSAQSRRGNVGLSVPTTGCRRGCEDSLNEYRRNYVTLSHTGEWELLGNSDTYLQREESENKSREMTIVNTTFKSSLVKGLGAHTLTTGVDATHAELEDFTSNKASSKTKASNTQWAVFIEDEWKIAEPFSLTLGGRLDHDENYGAHFSPRVYGVWRVAPAWTVKGGVATGFRSPQLREITPGWAQVSGGGNIYGNPDLDPETSLNKEISVLYQGDSGLDVTLTAFHNEFKDKITRVVCPDTICTDGPNQWGADPTYRINVDEAVTQGVEATLAKPLTETIYLSSSYTFTDSEQKTGEYKGMPLQQLPKHLFNVDVTWQTTDNLESWTKVTYRGKEMDPVTGPSRNSIVEPAYTFVDAGVTYQLTDNTKIKGAIYNLFDEDINYKEYGYVEDGRRYWLGLDVAF”, “failed”; to “ARFYSDGLKLAGTLFVPDDYEPGQKRPAVLICHGRFAIKEWVPSRWTPHFLAAGYVCMVFDYRNLGESEGTPGRIIPDEEVRDARHALTYLQCQPEVDPARIGALGWGLGGGVAVSAAAHDARIKAVVCAIGVANGGRYGRVGMSDAAWAARQEQIAADRRERVLTGRSARLPRTEILGRPDAQRAERHERQNWIDSLVAAVGPERAADPAKLGIPDEITLESMEALYDFAPDAVVDRIAPRPLLIVHARDDHEFPFEHAADMYERAAQPKQLIAVEDAGHLDWIDPAHPSQQVYVPQVVAWMQAQL”, “not failed”.
As for “MQQPTASVVSYVAEYHKATETTMGRYKKVIEITGHDEVAAKLLEGLIDAGTRYFSKVVEMEHRMASARFRLDGEELRELTETLDRSRRLAHESLISSLHVFNRYIVKEYGEELKEAGIEGGIFPKPEANRDRIAIADWAGELLTGIYENRHR”, the protein production result was “not failed”.
Consider “MEVVVVGDAQAMAGRVPTVMHVRCPDRLREGVYRQVLELLTDLSPVVQALPPTAALVELKGALRYHGSEVHRLGEVLRVRTLSRLGVDVRVGIGPSITIAATASAQVPLPGGVLTVAPDDVTDWLAPLPGEALHGLGPRQAGALHEYGIHTVGLLAAVSPETVQRLLGGKAGRLAADRARGRDPRPVVPRALPAAATVRMRFDRHVLDGADVRAALLDLVVQLGRLLRRRGQAARAVSLTLQFAGGGSWEKSRRLPEPSAHDEDLRTMAYRLIDAAGLQRGRLTGLFLKADDLVDADRVAQQISLDQAREARLVAEATVDRVRDKFGPGVIGPAATARRAS”, for which the protein production entry was “failed”.
Consider “MKRADFCIIGLGRFGMQVAHSLKENNFTLVLIDNDQHKTNTAAQEFDHVVCCDGSNLTALAELQLEEFSAVIVGVTNIEASIMICANLRELGQKNIIARAKNEVHNRVLRTMGIREALIPEKIVGKNLVIRLIHGMETEIINLGNDILFVRAPVNNKKLFNRTLGEINIREHTNANLISIMRNGKDVVFPLGPNTQIQPGDVITAVCQLSGVNQYLRYINPNDKNKYKASE”, for which the protein production result is given as “failed”.
For the sequence “MHQQGIRMEGMSDLNALNLEPGEVVGGYTLISRLGSGAMGSVWRVRDDGGTTYAMKILRDSLADESVAGSGSASAALHDPDLKPDVTPRERLRREAMALKKVNHPGVCGIVDMELDDTLAFIVTELIEGKNLKDDVAANGRYVGDDLERLARKLIDATKAVHAAGIVHRDIKPTNVMVSAAGPVLVDFGIAMGEGESHVTRTGLVMGTPGFIAPEIIDGAESDEATDWWSVASVLAFAATGAPVFGTKPMMAVLEREASGNANLSGLPAGTLAAFRSALDPDRTKRCTPDQLLNAIALDALNPAVWQGAQAGPFAAGAIAGGANTIAPAAGTAGETEAVPPFGAAGHVDRNNPRTIWRATDEAAQALTDEATTTLPDSAAPAISDEATVQLAGATVPLTEATTPLTSEATTPLTPVTGEPLLAPTTPLAERTAVLPSPQPTAFPPTPPVQLVGGMAQNGWNPAAADVQATVVDPNIRPALQRVIDQTAQFAPTEALVQQPLAPNPADVKRGEYLQRGVFPLLLLALPLAVLAASMPLIALLAAAAMLWLLLTLAYNTEPQLEREGRRGGERKSSDTWIRAATLPWHIVKALLLSLPRMVLLIVIAIAGTAAATMALALPTQTVYWYFTPERGVPIPLLNDVPLSASGLALGGFMAIGWLVTVFGPQAMMARLGAGVLRGLNPRQAQSPMPLAYDGSPAVPSPAAMAPASATRGKRSTMLFTIWIIVTLALCTLPLTGMAIDWTPLV”, the protein production result is given as “failed”.
With “MHGPPESQEPCGTFGPDETTGATSTAASRGEARRLPRGGVLWALVDCNNFYASCERLFRPDLKGRPVVVLSNNDGCVIARSAEAKALGVPMGAPEFKVRDMLRAHDVAVFSSNYALYGDLSQRVMRTLATVVPRVEVYSIDEAFIPLPAALAADPVAVGRTLRQRVAQWVGIPVSVGVGPTRTLAKLANRLSKQDSAYGNVFDLTPETVDMDRVLASVDVGDVWGVGRRSAEMLRGRGILTARALRDADPLWVRQRMTVTGWRTQQELRGMPCLTDDDLPVPRRSIRSSRSFGQMVRTLEPLREAVATFTARAVAKARAEGLVASCIEVHIRTPRHTERPRYDETTTITLPCPTADTGLCIRHALTGLERIFREGYLYAKAGVTLFGLEPAAGRQGSLLDLLDGSHEHKARRERLMAALDAVNLRHGRGSIRHGAEGDPGAAWHMSQKYRSPRYTTAWEELPEVLCR”, the protein production entry is “failed”.
Regarding “MTPRRHDNDYERRKWRQVAGHFGMGAAFGALFAGIVLFNNYFGLSSVIATSEAPTLVRIIFVVGVAGSFAFMAAITGFLFLVHED”, the protein production entry is “failed”.
As for “MRTAVAVPYHSGIRLPLLFEKNARMTETIDTNVFNLAPVAMWIEDFSEVKSQFDIWRAEGIEDIRAFLLEDLSRVAACSQKIRVIEVNAKTLELFEARDQAHLVDNLHRIFRDDMLESHVNELSELWAGRTEFTSNAVNYSIGGRRLDIQLRGTVIPGHEDTLGRLLLTTEDVTEREEARRKELLNRRYAEGMFKHSPVSLWVEDFSRVRRLIEEVRERGIVDFRVFMDVHPEFVRQCMSEIRVIDVNQATLDLFCAADRQVLLQRLGDIFRGEMEKPFREQLIELWNGNLTHHREVVNYALDGSERHVLLHFSVFPGHERDWSLVQVALTDITARKKAEAYLEYLGKHDVLTKLHNRAFYSDELNRLERSALRPVSAIVIDLNGLKEANDKLGHDAGDALLRRVGEVLNGVVTAPNHAARIGGDEFAILLPGADKQVAAAMVDTVYELLKINNQFYSSAPLSLSLGVATTEAGETMESLVRRADMNMYEQKNAYYAALRNRSADNNDTTKGGSQSETTSLKRLF”, the protein production result is reported as “failed”.
On to “MLDNLQLTDILATVAVLVSITFLIYFAGKTLITANSFQKGVSLYQQKDYPGAEAAFRKVIAINSTNDVVRLFLGDVLREQGKVAEATELFQEVINRSPKNPQGYLRLATILMQQEKQAEAKTNLQKAQELLQKQRQPETAKRVAKLLEQMNTKTI”, for which the protein production result is on record as “failed”.
To “MNTKIITILFIAFLSVLFFTGCIEEKISSQEHGSTKGISSSNDENTENRTVTDSLGRQVQVPLMVERVADTWMGHNEVLAMLGADDRLVATMFSPQSRPWMYKVCPTFNDAVTLSPTYDIEELLATKPDVVFMSKSDKNLEKISNLGIPAVQVSFTDFDSMKKCISDTANVLGDEEALERAQQYNTYLDSKLESVRNTSSQIPDENRPKVLHVVSLSPLCVDGGGNIISDWIEAAGGVNAAEEVKGGIMQEVSMEQILKWNPDVIILSVNAKSREKEQIMNSDQWKKVKAIQDNRVFLNPEGAFIWSRAGAEEALQIQWAAKTINPDKFQFIDINNETKWFYKTFFEYELTDEEVQKILNAEAPN” belongs “failed”.
Take “MESWKVNLISVWFGCFFTGLAISQILPFLPLYVSQLGVTSHEALSMWSGLTFSVTFLVSAIVSPMWGSLADRKGRKLMLLRASLGMAIAILLQAFATNVWQLFILRAIMGLTSGYIPNAMALVASQVPRERSGWALSTLSTAQISGVIGGPLLGGFLADHVGLRMVFFITAILLTISFLVTLFLIKEGVRPQVSKSERLTGKQVFASLPYPGLVISLFFTTLVIQLCNGSIGPILALFIKSMAPDSNNIAFLAGMIAAVPGVSALISAPRLGKLGDRIGTSRILLATLCCAVVMFFAMSFVTTPLQLGTLRFLLGFADGAMLPAVQTLLLKYSSDSVTGRIFGYNQSFMYLGNVAGPLIGASVSAMAGFRWVFIATAIIVFINLWQLAWMLRQTRRANA”: the protein production result is on record as “not failed”.
Regarding “MIELIDPISKQRLEESPEGLRNENGIVVYPLINGAYRVAASDNYTSNFGLEWNTFQKTQIDKFSGNTVSEERLFAQTNWQKNGLEGETILEVGSGAGRFSQIMLDHTKATLYSVDYSEAVEANYRNNGPHERFKLFQASIYELPFKQASFDRVICLGVLQHTPDFKASVKALVEMVKPGGELVIDFYPIRNVFTKVHGKYLLRPILKRVNHHRLMSLIRNNIDFLISIYTFNRRIGLGVFNRFVPICEIERTLPKGMTPEQLKEWIILDTFDMFSPEYDQPQRLSTVAKWVKEFGMADVDASWVTYHGKLEAPTVRGRKVLEHHHHHH”, the protein production entry was “not failed”.
